The target of assay [1] is T1, human factor X (human, UniProt P00742 41-179; P00742 183-488).
T1 construct: Zymogen used as analyte in SPR; also called FX; Human FX (MW ~58 KDa)
Description: SPR, bispecific captured on anti-human IgG Fc, FIX then FX injected. The procedure: (§1) The binding kinetics of the purified bispecific antibody was compared to an isotype control (ISTC). […] FIG. 21A.
(§2) Bispecific antibody (ligand), which had been purified by Protein A capture followed by ion exchange chromatography, was captured on to the anti-human IgG Fc CM4 surface at approximately 2 μg/ml. The ligand was injected at 10 μg/ml for 60 seconds at 10 μl/min in one active channel. The run was performed at 25° C. using neutral pH HBS-P 1×+CaCl₂ 2.5 mM as running buffer.

Assay [2] deals with human FIX and human FX mixed 1:1 (10 µM 10 µM). The assay is described as follows: SPR, bispecific captured on anti-human IgG Fc, second injection of a 1:1 mixture of FIX and FX.
Assay [3] deals with T2, human factor IX (human, UniProt P00740 47-461, 12 glutamic acid residues of the GLA domain are post-translationally γ-carboxylated).
T2 construct: Zymogen used as analyte in SPR, reconstituted at 1 mg/ml; also called FIX; Human FIX (MW ~55 KDa)
The assay is described as follows: SPR (Biacore 8K), antibody captured on anti-human IgG Fc CM4 chip, human FIX injected alone as analyte (10 µM, 180 s per Example 11) [i), B(i]. The procedure:
as §1, §2
On the technique in general: In SPR one partner is held on a chip, and binding of the other changes the refractive index at the surface.

T1 sequence (P00742 41-179, chain 1 of 2): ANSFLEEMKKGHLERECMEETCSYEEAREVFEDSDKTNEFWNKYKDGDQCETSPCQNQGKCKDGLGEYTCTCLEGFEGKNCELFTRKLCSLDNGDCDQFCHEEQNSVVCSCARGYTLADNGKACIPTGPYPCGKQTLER
T1 sequence (P00742 183-488, chain 2 of 2): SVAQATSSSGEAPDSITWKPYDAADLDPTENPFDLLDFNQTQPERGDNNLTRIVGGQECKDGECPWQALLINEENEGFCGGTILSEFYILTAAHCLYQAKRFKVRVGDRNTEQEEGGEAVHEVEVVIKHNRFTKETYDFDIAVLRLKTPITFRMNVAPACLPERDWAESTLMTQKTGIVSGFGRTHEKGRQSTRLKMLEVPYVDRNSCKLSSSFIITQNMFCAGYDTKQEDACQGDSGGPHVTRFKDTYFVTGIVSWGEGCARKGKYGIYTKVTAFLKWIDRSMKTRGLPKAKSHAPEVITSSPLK
T2 sequence (P00740 47-461 limits assumed): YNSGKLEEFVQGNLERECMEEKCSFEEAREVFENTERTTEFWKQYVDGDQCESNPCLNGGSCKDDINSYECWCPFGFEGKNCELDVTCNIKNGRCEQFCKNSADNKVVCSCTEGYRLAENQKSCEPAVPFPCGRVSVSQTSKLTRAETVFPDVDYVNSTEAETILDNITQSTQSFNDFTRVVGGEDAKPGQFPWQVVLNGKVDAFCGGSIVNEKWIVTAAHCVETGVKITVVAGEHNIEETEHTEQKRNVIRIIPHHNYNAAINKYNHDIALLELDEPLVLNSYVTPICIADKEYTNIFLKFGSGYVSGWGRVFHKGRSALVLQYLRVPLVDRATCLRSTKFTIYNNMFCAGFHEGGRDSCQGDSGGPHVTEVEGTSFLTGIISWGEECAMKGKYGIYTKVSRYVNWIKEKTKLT

B1: FIXxFX bispecific antibody IXAX-0436.0202.0128 (bispecific antibody, human IgG4 S228P, lambda)
heavy 1: EVQLVESGGGFVQPGGSLRLSCAVSGFTFNSYWMSWVRQAPGKGLEWVANINQDGSEKFYVASVKGRFTMSRDNAKKSVYVQMNSLRAEDTAVYYCAREGYSSISYYGMDVWGQGTTVTVSSASTKGPSVFPLAPCSRSTSESTAALGCLVKDYFPEPVTVSWNSGALTSGVHTFPAVLQSSGLYSLSSVVTVPSSSLGTQTYTCNVDHKPSNTKVDKRVESKYGPPCPPCPAPEFLGGPSVFLFPPKPKDTLMISRTPEVTCVVVDVSQEDPEVQFNWYVDGVEVHNAKTKPREEQYNSTYRVVSVLTVLHQDWLNGKEYKCKVSNKGLPSSIEKTISKAKGQPREPQVYTLPPSQEEMTKNQVSLTCLVKGFYPSDIAVEWESNGQPENNYKTTPPVLDSDGSFFLYSKLTVDKSRWQEGNVFSCSVMHEALHNHYTQESLSLSP
heavy 2: QVQLIQSGAEVQKPGASVKVSCKASRYSFTSYYMHWVRQAPGQGLEWMGIINPKSGSTSYAQKFQGRVTMTRDTSTSTVYMELSSLRSEDTAVYYCARDGYGSSSRCLQLWGQGTLVTVSSASTKGPSVFPLAPCSRSTSESTAALGCLVKDYFPEPVTVSWNSGALTSGVHTFPAVLQSSGLYSLSSVVTVPSSSLGTQTYTCNVDHKPSNTKVDKRVESKYGPPCPPCPAPEFLGGPSVFLFPPKPKDTLMISRTPEVTCVVVDVSQEDPEVQFNWYVDGVEVHNAKTKPREEQYNSTYRVVSVLTVLHQDWLNGKEYKCKVSNKGLPSSIEKTISKAKGQPREPQVYTLPPSQKEMTKNQVSLTCLVKGFYPSDIAVEWESNGQPENNYKTTPPVLDSDGSFFLYSKLTVDKSRWQEGNVFSCSVMHEALHNHYTQKSLSLSP
light: SYVLTQPPSVSVAPGETARITCGGDNIGRKSVYWYQQKSGQAPVLVIYYDSDRPSGIPERFSGSNSGNTATLTISRVEAGDEADYYCQVWDGSSDHWVFGGGTKLTVLGQPKAAPSVTLFPPSSEELQANKATLVCLISDFYPGAVTVAWKADSSPVKAGVETTTPSKQSNNKYAASSYLSLTPEQWKSHKSYSCQVTHEGSTVEKTVAPTECS
notes: also called N436 bispecific antibody
Turning to B1, the binding result in assay [1] and in assay [3] was “binds” in each case. In assay [2], the response above that of the anti-FX monospecific antibody (RU) came to 25 RU.

The record behind these values is patent US20220064327A1 (KYMAB, published 2022).
